T1: Int280 of EHEC (C-terminal receptor-binding domain of intimin), His-tagged (enterohemorrhagic E. coli (EHEC) O157:H7, UniProt P43261 655-934)
T1 construct: also called Int280_(EHEC)
T1 sequence: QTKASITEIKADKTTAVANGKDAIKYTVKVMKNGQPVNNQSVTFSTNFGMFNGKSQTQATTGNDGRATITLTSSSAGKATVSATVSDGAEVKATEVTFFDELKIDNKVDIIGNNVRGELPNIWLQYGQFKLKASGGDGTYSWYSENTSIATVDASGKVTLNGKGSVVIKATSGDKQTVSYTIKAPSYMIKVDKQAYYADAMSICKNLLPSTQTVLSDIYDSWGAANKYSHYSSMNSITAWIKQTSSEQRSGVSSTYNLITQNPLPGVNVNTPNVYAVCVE

T2: Tir TirM (Escherichia coli, UniProt P0DJ92)
T2 chain: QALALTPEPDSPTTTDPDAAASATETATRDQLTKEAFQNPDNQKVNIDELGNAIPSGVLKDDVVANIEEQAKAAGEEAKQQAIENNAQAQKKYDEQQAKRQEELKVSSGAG


Tests used:
[1] = biological target: T1, Int280 of EHEC (C-terminal …); assay: SPR; BiaCore3000; biotinylated TirM_(EHEC) immobilised on a Streptavidin SA chip at 150 RU; Int280 as analyte at 30 ul/min in HEPES-buffer; 1:1 Langmuir model; KD from koff/kon; conditions: both partners purified
Tir TirM = biological target: T2, Tir TirM; assay: SPR

Binder | Kd [1] [nM] | koff [1] [s⁻¹] | kon [1] [M⁻¹ s⁻¹] | Kd (Tir TirM) [nM]
Biotinylated TirM of EHEC, His-tagged (domain or fragment, biotin (Biotinamidocaproate N-hydroxysuccinimide ester), also called biotinylated TirM_(EHEC)) QALALTPEPDSPTTTDPDAAASATETATRDQLTKEAFQNPDNQKVNIDELGNAIPSGVLKDDVVANIEEQAKAAGEEAKQQAIENNAQAQKKYDEQQAKRQEELKVSSGAG | 48.1 | 0.0375 | 785000 | 
Intimin Int280 Int280 (protein) QTKASITEIKADKTTAVANGKDAIKYTVKVMKNGQPVNNQSVTFSTNFGMFNGKSQTQATTGNDGRATITLTSSSAGKATVSATVSDGAEVKATEVTFFDELKIDNKVDIIGNNVRGELPNIWLQYGQFKLKASGGDGTYSWYSENTSIATVDASGKVTLNGKGSVVIKATSGDKQTVSYTIKAPSYMIKVDKQAYYADAMSICKNLLPSTQTVLSDIYDSWGAANKYSHYSSMNSITAWIKQTSSEQRSGVSSTYNLITQNPLPGVNVNTPNVYAVCVE |  |  |  | ~40

Source: PMC6738647, “A nanobody targeting the translocated intimin receptor inhibits the attachment of enterohemorrhagic E. coli to human colonic mucosa” (PLoS Pathogens, 2019)
